This passage reports self-cleavage results from the RNAGym collection of RNA variant scans (doi:10.7554/elife.80360).

B1: HDV Ribozyme (parent)
chain: GGCCGGCAUGGUCCCAGCCUCCUCGCUGGCGCCGGCUGGGCAACAUUCCGAGGGGACCGUCCCCUCGGUAAUGGCGAAUGGGACCCA

Variants of B1 are the subject of this data set. As to the kind of experiment: self-cleavage, relative activity (ratio to wild type); higher = more cleavage; co-transcriptional.
For GGCCGGCAUGGUCCCUGCCUCCUCGCUGGCGCCGGCUGGGCAACAUUCCGAGGGGACCGUCCCCUCGGUAAUGGCGCAUGGGACCCA [A16U A77C], the self-cleavage was 0.0692.

Regarding GGCCGGCACGGUCCAAGCCUCCUCGCUGGCGCCGGCUGGGCAACAUUCCGAGGGGACCGUCCCCUCGGUAAUGGCGAAUGGGACCCA [U9C C15A], the self-cleavage worked out at 0.748.

Regarding GGCCGGGAUGGUCCCAGCCUCCUCGCUGGCGCCGGCUGGGCAACAUUCCGAGGGGACCGUCCCCUCUGUAAUGGCGAAUGGGACCCA [C7G G67U], the self-cleavage stood at 0.302.

Take GGCCGGCAUGGUCCCAGCCUCCUCGCUGGCGCCGGUUGGGCAACAUUCCGAGGGGACCGUCCCCUCGGUAAUGGCGAAUGGGACCCA [C36U]: the self-cleavage is 0.744.

As to GGCCGGCAUGGUCCCAGCCGCCUCGCUGGCGCCGGCUAGGCAACAUUCCGAGGGGACCGUCCCCUCGGUAAUGGCGAAUGGGACCCA [U20G G38A], the self-cleavage came to 0.0573.

GGCCGGCAUGGUCCCAGCCUCCUCGCUGGCGCCGGCUUGGCAACAUUCCGAGGGGACCGUUCCCUCGGUAAUGGCGAAUGGGACCCA [G38U C61U]: the self-cleavage was found to be 0.174.

In the case of CGCCGGCAUGGUCCCAGCCUCCUCGCUGGCGCCGGCUGGGCAACAUUCCGAGGGGACCGUCCCCUCGGUAAUGGCUAAUGGGACCCA [G1C G76U], the self-cleavage amounted to 0.115.

As to GGCCGGCAUGGUCCCAGCCUCCUCGCUGGCGCCGGCUGGGCAACAUUCCGAGGGGACCGUCCGCUCGUUAAUGGCGAAUGGGACCCA [C63G G68U], the self-cleavage turned out to be 0.504.

GGCCGGCAUGGUCCCAGCCUCCUCGCUGGCGCCGGCUGGACAACAUUCCGAGGGGACCGUCCCCUCGGUAAUGGCGAAUGGGUCCCA [G40A A83U]: the self-cleavage amounted to 0.251.

As for GGCCGGCAUGGUCCCAGCCUCCUCGCUGGCGCCGGCUGGGCAACAUUCCGAGGAGACCGUCCGCUCGGUAAUGGCGAAUGGGACCCA [G54A C63G], the self-cleavage came to 0.816.

Regarding GGCCGGCAUGGUCCCAGCCUCCACGCUGGCGCCGGCUGGGCAACAUUCCGAGGGGACCGUCCCCUCGGUAAUGGCGAAUGGGUCCCA [U23A A83U], the self-cleavage amounted to 0.449.

Consider GGCCGGCAUGGUGCUAGCCUCCUCGCUGGCGCCGGCUGGGCAACAUUCCGAGGGGACCGUCCCCUCGGUAAUGGCGAAUGGGACCCA [C13G C15U], for which the self-cleavage amounted to 0.

Take GCCCGGCCUGGUCCCAGCCUCCUCGCUGGCGCCGGCUGGGCAACAUUCCGAGGGGACCGUCCCCUCGGUAAUGGCGAAUGGGACCCA [G2C A8C]: the self-cleavage was 0.0639.

As for GGCCGGCAUGGUCCCAGCCUCCUCGCUGGCGCCGGCUGGGCAACAUACCGAGGGGUCCGUCCCCUCGGUAAUGGCGAAUGGGACCCA [U47A A56U], the self-cleavage came out at 0.856.

Regarding GGCCGGCAUGGUCCCAGCCUCCUCGCUGGCGCCGGCUGAGCAACAAUCCGAGGGGACCGUCCCCUCGGUAAUGGCGAAUGGGACCCA [G39A U46A], the self-cleavage stood at 0.0773.

As for GGCCGGCAUGGUCCCAGCCUCCUCGCUGGCGCCGGCUGGGCAACAUUCCGAGGGGACGGUCCGCUCGGUAAUGGCGAAUGGGACCCA [C58G C63G], the self-cleavage was determined as 0.91.

For GGCCGGCAUGGUCCCAGCCCCCUCGCUGGCGCCGGCUGGGCAAUAUUCCGAGGGGACCGUCCCCUCGGUAAUGGCGAAUGGGACCCA [U20C C44U], the self-cleavage was 0.

On to GGCCGGCAUGGUCCCAGCCUCCUCGCUGGCGCCGGCUGGGCAACAUUCCGUGGGGACCGUCCCCUCGGUAAUGGCGAAGGGGACCCA [A51U U79G], for which the self-cleavage stood at 0.534.

With GGCCGGCAUGGUCCCAGCCUCCUCGCCGGCGCCGGCUGGGCAACAUUCCGAGGGGACCGUCCCCUCGGUAAUGGCGAAUGGGAUCCA [U27C C84U], the self-cleavage was determined as 0.65.

As to GGCCGACCUGGUCCCAGCCUCCUCGCUGGCGCCGGCUGGGCAACAUUCCGAGGGGACCGUCCCCUCGGUAAUGGCGAAUGGGACCCA [G6A A8C], the self-cleavage is 0.323.

For GGCCGGCAUGGUCCCAGCCUCCUAGCUGGCGCCGGCUGGGCAACAUUCCGAGGGGACCGUCCUCUCGGUAAUGGCGAAUGGGACCCA [C24A C63U], the self-cleavage was determined as 0.692.

Turning to GGACGGCAUGGUCCCAGCCUCCUCGCUGGCGCCGGCUGGGCGACAUUCCGAGGGGACCGUCCCCUCGGUAAUGGCGAAUGGGACCCA [C3A A42G], the self-cleavage came out at 0.0615.

On to GGCCGGCAUGGUCCCAGCCUCCUCGCUGGCGCCCGCUGGGCUACAUUCCGAGGGGACCGUCCCCUCGGUAAUGGCGAAUGGGACCCA [G34C A42U], for which the self-cleavage worked out at 0.262.

In the case of GGCCGGCAUGGUCUCAGCCUCCUCGCUGGCGCCGGCUGGGCAACAUUCCGAGGGGACCGUCCCCUCGGUAAUGCCGAAUGGGACCCA [C14U G74C], the self-cleavage came out at 0.369.

In the case of GGCCGGCAUGGUCCCAGCCUCCUCGCUGGCGCCGGCUGGUCAACAUUGCGAGGGGACCGUCCCCUCGGUAAUGGCGAAUGGGACCCA [G40U C48G], the self-cleavage came out at 0.665.

As for GGCCGGCAUGGUCCCAGCCUCCUCGCUGGCGCCGGCUGGGCAACAUUCCGAGGGGACCGUCCCCUCAGUAAUGGCGAAUGGGACCUA [G67A C86U], the self-cleavage amounted to 0.845.

In the case of GGCAGGCAUGGUCCCAGCCUCCUCGCUGGCGCCGGCUGGGUAACAUUCCGAGGGGACCGUCCCCUCGGUAAUGGCGAAUGGGACCCA [C4A C41U], the self-cleavage turned out to be 0.163.

As for GGCCGGCAUGGUCCCAGCCUCCUCGCUGGCGCCGGCUGGACAACAUUCCUAGGGGACCGUCCCCUCGGUAAUGGCGAAUGGGACCCA [G40A G50U], the self-cleavage turned out to be 0.842.

Regarding GGCCGGCAUGGUUCCAGCCUCCUCGCUGGCGCCGGCUGGGCAACAUUGCGAGGGGACCGUCCCCUCGGUAAUGGCGAAUGGGACCCA [C13U C48G], the self-cleavage came to 0.499.

With GGCCGGCAUGGUCCCAGCCUCCUCGCUGGCGCCGGCUGGGCAACAUUCCGAGGGGACCGUGCCCUCGGUAAUGGCGGAUGGGACCCA [C61G A77G], the self-cleavage was 0.831.

In the case of GGCCGGCAUGGUCCCAGCCUCCUCGCUGGCGCCGGCUAGGCAACAUUCCGAGGGGACCGUCCCCUCGGUAAUGUCGAAUGGGACCCA [G38A G74U], the self-cleavage turned out to be 0.0934.

Regarding GGCCGGCAUGGUUCCAGCCUCCUCCCUGGCGCCGGCUGGGCAACAUUCCGAGGGGACCGUCCCCUCGGUAAUGGCGAAUGGGACCCA [C13U G25C], the self-cleavage is 0.0723.
